Values belong to the binder of their own block, whether it stands above or below them.
What was measured:
[1] = target: T1, Neonatal Fc receptor (FcRn) on CHO-FcRnGPI cells; experiment: flow cytometry on CHO-FcRnGPI cells, pH 6.4
T1 construct: whole, on cells; also called FcRn receptor
Protocol: CHO-FcRnGPI cells (Stable FcRn receptor expressor) and CHO-pBudl l cells (non-FcRn expressor) were aliquotted into 96-well plates at 1×10⁵ cells/well. Cells were resuspended in 150 μl FACS buffer. Anti-c-Met Ab and half-Ig binding proteins were diluted to 100 μg/ml in FACS buffer pH 6.4 and pH 7.4. 30 μl of diluted antibody or half-Ig binding protein was added to each well and incubated on ice for 1 hour. Following 2 washes with FACS buffer, 50 μl of secondary antibody R-phycoerythrin-conjugated AfiniPure F(ab′)₂ Fragment goat anti-human IgG (Jackson ImmunoResearch®, West Grove, Pa.) diluted in FACS buffer pH 6.4 or pH7.4 was added. The mixture was incubated for 30 min on ice. The cells were resuspended in 100 μl PBS with 1% FBS (Invitrogen®, Carlsbad, Calif.) and 2 μg/ml propidium iodide (Invitrogen®, Carlsbad, Calif.) of the corresponding pH. Final FACS data were acquired on a FACScan (Becton Dickinson, Franklin Lakes, N.J.).

biotin-labeled c-Met [2] = target: T2, biotin-labeled c-Met (UniProt P08581 25-932, limits assumed, biotin-labeled); experiment: ELISA, biotin-labeled c-Met detected with streptavidin-HRP; parental full antibody
Protocol: (§1) c-Met binding ELISA was performed to characterize the antigen binding property of anti-c-Met half-Igs. 96-well ELISA plates were coated with 100 μl/well 5 μg/ml anti-mouse IgG Fc in PBS at 4° C. overnight. After 3 washes with PBS/0.05% Tween®20, the plates were blocked with 5% milk in PBS for 1 hour at room temperature. After another 3 washes with PBS/0.05% Tween®20, 100 μl c-Met antibody or half-Ig was added to each well followed by an incubation of 1 hour at room temperature. Binding biotin-labeled c-Met was detected by Streptavidin-horseradish peroxidase (KPL, Gaithersburg, Md.) and tetramethylbenzidine (Thermo Scientific, Rockford, Ill.). Final absorbances were acquired at 450 nm after stopping the reactions with 2 mol/L H₂SO₄.

biotin-labeled c-Met [3] = target: T2, biotin-labeled c-Met; experiment: ELISA, biotin-labeled c-Met detected with streptavidin-HRP; half-Ig (cMet-Mut6)
Protocol: as §1

[4] = target: T3, cell surface CD28 on Jurkat E6-1 cells (UniProt P10747 19-220, limits assumed); experiment: flow cytometry on Jurkat E6-1 cells
T3 construct: whole, on cells; Jurkat is a human cell line
Protocol: Jurkat E6-1 cells (ATCC, Manassas, Va.) were harvested and washed with PBS, and resuspended in ice cold PBS with 10% FCS (GIBCO®) at 2×10⁷ cells/ml. Anti-CD28 antibodies or half-Ig binding protein (1 μl) was added to tubes containing 100 μl of cell suspension, then incubated on ice for 30 min. The cells were washed 3 times and resuspended in ice cold PBS, then stained with PE labeled anti-human IgG1 antibody (Southern Biotech, Birmingham, Ala.) according to manufacturer's instructions. After secondary staining, the cells were washed and resuspended in ice cold PBS with 10% FCS. FACS analysis was performed on a FACScan (Becton Dickinson, Franklin Lakes, N.J.).

[5] = target: Recombinant Human TNF-α/TNFSF1A (human, UniProt P01375 77-233); experiment: SPR (BIAcore)
Sequence of Recombinant Human TNF-α/TNFSF1A (P01375 77-233 limits assumed): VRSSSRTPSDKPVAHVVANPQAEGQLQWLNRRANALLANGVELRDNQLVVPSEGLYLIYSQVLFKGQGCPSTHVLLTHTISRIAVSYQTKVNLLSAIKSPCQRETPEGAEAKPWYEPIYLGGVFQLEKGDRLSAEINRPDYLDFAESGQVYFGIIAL
Protocol: The BIAcore® assay (BIAcore®, Inc, Piscataway, N.J.) determines the affinity of antibodies with kinetic measurements of on-rate and off-rate constants. Binding of antibodies to a target antigen (for example, a purified recombinant target antigen) is determined by surface plasmon resonance-based measurements with a BIAcore® 1000 or 3000 instrument (BIAcore® AB, Uppsala, Sweden) using running HBS-EP (10 mM HEPES [pH 7.4], 150 mM NaCl, 3 mM EDTA, and 0.005% surfactant P20) at 25° C. […] Unreacted moieties on the biosensor surface are blocked with ethanolamine. Modified carboxymethyl dextran surface in flowcell 2 and 4 is used as a reaction surface. Unmodified carboxymethyl dextran without goat anti-mouse IgG in flow cell 1 and 3 is used as the reference surface. For kinetic analysis, rate equations derived from the 1:1 Langmuir binding model are fitted simultaneously to association and dissociation phases of all eight injections (using global fit analysis) with the use of Biaevaluation 4.0.1 software. Purified antibodies are diluted in HEPES-buffered saline for capture across goat anti-mouse IgG specific reaction surfaces. […] The association and dissociation rate constants, kₒₙ (M⁻¹s⁻¹) and koff (s⁻¹), are determined under a continuous flow rate of 25 μl/minute. Rate constants are derived by making kinetic binding measurements at different antigen concentrations ranging from 10-200 nM. The equilibrium dissociation constant (M) of the reaction between antibodies and the target antigen is then calculated from the kinetic rate constants by the following formula: KD=koff/kₒₙ. Binding is recorded as a function of time and kinetic rate constants are calculated.

T2 sequence (P08581 25-932 limits assumed): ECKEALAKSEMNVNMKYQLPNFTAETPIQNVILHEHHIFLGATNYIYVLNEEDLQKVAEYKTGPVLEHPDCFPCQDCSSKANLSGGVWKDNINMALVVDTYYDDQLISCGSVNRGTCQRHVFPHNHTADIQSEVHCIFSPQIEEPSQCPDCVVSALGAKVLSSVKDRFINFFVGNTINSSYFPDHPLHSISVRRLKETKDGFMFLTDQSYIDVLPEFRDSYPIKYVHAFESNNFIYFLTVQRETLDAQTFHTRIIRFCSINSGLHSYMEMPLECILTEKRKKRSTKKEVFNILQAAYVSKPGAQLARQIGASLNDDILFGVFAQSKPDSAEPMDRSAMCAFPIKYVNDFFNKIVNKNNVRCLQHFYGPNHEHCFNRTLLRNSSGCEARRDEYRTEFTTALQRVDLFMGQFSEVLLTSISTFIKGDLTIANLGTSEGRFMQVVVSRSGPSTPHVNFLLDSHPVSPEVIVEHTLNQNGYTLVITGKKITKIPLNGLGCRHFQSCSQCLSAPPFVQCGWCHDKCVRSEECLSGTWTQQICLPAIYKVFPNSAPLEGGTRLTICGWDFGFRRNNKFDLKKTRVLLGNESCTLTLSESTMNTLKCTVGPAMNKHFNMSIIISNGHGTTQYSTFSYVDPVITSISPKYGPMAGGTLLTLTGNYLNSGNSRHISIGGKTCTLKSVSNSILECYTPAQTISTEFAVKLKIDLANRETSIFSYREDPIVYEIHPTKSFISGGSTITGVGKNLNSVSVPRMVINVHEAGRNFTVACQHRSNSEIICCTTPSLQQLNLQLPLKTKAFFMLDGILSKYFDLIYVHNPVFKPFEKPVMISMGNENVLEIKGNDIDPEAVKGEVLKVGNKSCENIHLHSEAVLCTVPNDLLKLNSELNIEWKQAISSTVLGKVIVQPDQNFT

EC50 [1]: 51.8 nM
EC50 (biotin-labeled c-Met [2]): 0.36 nM
B1: Anti-c-Met Ig (parental 5D5 anti-cMet antibody) (antibody, human IgG1, kappa)
heavy: not shown
light: DFMMSQSPSSLTVSVGEKVTVSCKSSQSLLYTSSQKNYLAWYQQKPGQSPKLLIYWASTRESGVPDRFTGSGSGTDFTLTITSVKADDLAVYYCQQYYAYPWTFGGGTKLELKRTVAAPSVFIFPPSDEQLKSGTASVVCLLNNFYPREAKVQWKVDNALQSGNSQESVTEQDSKDSTYSLSSTLTLSKADYEKHKVYACEVTHQGLSSPVTKSFNRGEC
notes: Mouse 5D5 variable domains cloned into human Cg1 (z, non-a) and human Ck vectors; also called cMet mAb; wild-type c-Met antibody

EC50 (biotin-labeled c-Met [3]): 0.46 nM
B2: cMet-Mut6 half-Ig binding protein (antibody)
heavy: QVQLQQSGPELVRPGASVKMSCRASGYTFTSYWLHWVKQRPGQGLEWIGMIDPSNSDTRFNPNFKDKATLNVDRSSNTAYMLLSSLTSADSAVYYCATYGSYVSPLDYWGQGTSVTVSSASTKGPSVFPLAPSSKSTSGGTAALGCLVKDYFPEPVTVSWNSGALTSGVHTFPAVLQSSGLYSLSSVVTVPSSSLGTQTYICNVNHKPSNTKVDKKVEPKSSDKTHTSPPCPAPELLGGPSVFLFPPKPKDTLMISRTPEVTCVVVDVSHEDPEVKFNWYVDGVEVHNAKTKPREEQYNSTYRVVSVLTVLHQDWLNGKEYKCKVSNKALPAPIEKTISKAKGQPREPQVYTLPPSREEMTKNQVSLTCLVKGFYPSDIAVEWESNGQPENNYKTTPAVLDSDGSFRLRSDLTVDKSRWQQGNVFSCSVMHEALHNHYTQKSLSLSPGK
light: B1 light
notes: Half-Ig; CH3 P395A, F405R, Y407R, K409D; 100 % half-Ig by SEC; also called cMetHC-Mut6

binding result [4]: binds
B3: Anti-CD28 Ig (parental antibody 9.3) (antibody, human IgG1, kappa, V domains shown)
VH: QVKLQQSGAELVKPGASVRLSCKASGYTFTEYIIHWIKLRSGQGLEWIGWFYPGSNDIQYNAKFKGKATLTADKSSSTVYMELTGLTSEDSAVYFCARRDDFSGYDALPYWGQGTMVTVSS
VL: DIQMTQSPASLSVSVGETVTITCRTNENIYSNLAWYQQKQGKSPQLLIYAATHLVEGVPSRFSGSGSGTQYSLKITSLQSEDFGNYYCQHFWGTPCTFGGGTKLEIKR
notes: 9.3 variable domains on human Cg1 (z, non-a) and human Ck; also called anti-CD28 antibody 9.3

kon [5]: 1.9e+06 M⁻¹ s⁻¹
B4: ½ hTNFaR Fc (Fc fusion)
chain: LPAQVAFTPYAPEPGSTCRLREYYDQTAQMCCSKCSPGQHAKVFCTKTSDTVCDSCEDSTYTQLWNWVPECLSCGSRCSSDQVETQACTREQNRICTCRPGWYCALSKQEGCRLCAPLRKCRPGFGVARPGTETSDVVCKPCAPGTFSNTTSSTDICRPHQICNVVAIPGNASMDAVCTSTSPTRSMAPGAVHLPQPVSTRSQHTQPTPEPSTAPSTSFLLPMGPSPPAEGSTGDEPKSSDKTHTSPPSPAPELLGGPSVFLFPPKPKDTLMISRTPEVTCVVVDVSHEDPEVKFNWYVDGVEVHNAKTKPREEQYNSTYRVVSVLTVLHQDWLNGKEYKCKVSNKALPAPIEKTISKAKGQPREPQVYTLPPSREEMTKNQVSLTCLVKGFYPSDIAVEWESNGQPENNYKTTPPVLDSDGSFRLYSKLTVDKSRWQQGNVFSCSVMHEALHNHYTQKSLSLSPGK
notes: Half receptor-Fc with Fc-Mut18; 55 % half-Ig by SEC; also called half hTNFaR Fc
